± gives the standard deviation of the averaged measurements.
Assay: total protein half-life in vivo (active degradation + dilution); higher = more stable protein
[1] = E. coli NCM3722 delta-clpP delta-lon delta-hslV, growth: N-lim chemostat, doubling time 6 h
[2] = E. coli NCM3722 delta-clpP, growth: N-lim chemostat, doubling time 6 h
[3] = E. coli NCM3722 delta-hslV, growth: N-lim chemostat, doubling time 6 h
[4] = E. coli NCM3722 delta-smpB, growth: N-lim chemostat, doubling time 6 h
[5] = wild type E. coli NCM3722, growth: C-lim chemostat, doubling time 3 h
[6] = wild type E. coli NCM3722, growth: C-lim chemostat, doubling time 6 h
[7] = wild type E. coli NCM3722, growth: C-lim chemostat, doubling time 12 h
[8] = wild type E. coli NCM3722, growth: N-lim chemostat, doubling time 6 h
[9] = wild type E. coli NCM3722, growth: N-lim chemostat, doubling time 12 h
[10] = wild type E. coli NCM3722, growth: P-lim chemostat, doubling time 6 h
[11] = wild type E. coli NCM3722, growth: P-lim chemostat, doubling time 12 h
[12] = E. coli NCM3722 delta-lon, growth: N-lim chemostat, doubling time 6 h

Sequence | total protein half-life in vivo [1] [h] | total protein half-life in vivo [2] [h] | total protein half-life in vivo [3] [h] | total protein half-life in vivo [4] [h] | total protein half-life in vivo [5] [h] | total protein half-life in vivo [6] [h] | total protein half-life in vivo [7] [h] | total protein half-life in vivo [8] [h] | total protein half-life in vivo [9] [h] | total protein half-life in vivo [10] [h] | total protein half-life in vivo [11] [h] | total protein half-life in vivo [12] [h]
MKPIFSRGPSLQIRLILAVLVALGIIIADSRLGTFSQIRTYMDTAVSPFYFVSNAPRELLDGVSQTLASRDQLELENRALRQELLLKNSELLMLGQYKQENARLRELLGSPLRQDEQKMVTQVISTVNDPYSDQVVIDKGSVNGVYEGQPVISDKGVVGQVVAVAKLTSRVLLICDATHALPIQVLRNDIRVIAAGNGCTDDLQLEHLPANTDIRVGDVLVTSGLGGRFPEGYPVAVVSSVKLDTQRAYTVIQARPTAGLQRLRYLLLLWGADRNGANPMTPEEVHRVANERLMQMMPQVLPSPDAMGPKLPEPATGIAQPTPQQPATGNAATAPAAPTQPAANRSPQRATPPQSGAQPPARAPGGQ | 5.092 ± 0.007 | 4.62 ± 0.051 | 4.54 ± 0.24 | 4.76 ± 0.74 | 2.85 ± 0.07 | 5.57 ± 1.1 | 10.25 ± 0.089 | 4.21 ± 0.1 | 8.66 ± 0.23 | 4.98 ± 0.25 | 10.5 ± 0.18 | –
MTELKNDRYLRALLRQPVDVTPVWMMRQAGRYLPEYKATRAQAGDFMSLCKNAELACEVTLQPLRRYPLDAAILFSDILTVPDAMGLGLYFEAGEGPRFTSPVTCKADVDKLPIPDPEDELGYVMNAVRTIRRELKGEVPLIGFSGSPWTLATYMVEGGSSKAFTVIKKMMYADPQALHALLDKLAKSVTLYLNAQIKAGAQAVMIFDTWGGVLTGRDYQQFSLYYMHKIVDGLLRENDGRRVPVTLFTKGGGQWLEAMAETGCDALGLDWTTDIADARRRVGNKVALQGNMDPSMLYAPPARIEEEVATILAGFGHGEGHVFNLGHGIHQDVPPEHAGVFVEAVHRLSEQYHR | 4.03 ± 0.26 | 3.74 ± 0.17 | 3.83 ± 0.17 | 3.93 ± 0.27 | 2.94 ± 0.43 | 5.94 ± 0.61 | 8.76 ± 0.76 | 4.31 ± 0.093 | 6.62 ± 0.27 | 5.88 ± 0.075 | 10.4 ± 0.69 | 4.15 ± 0.56
MEKAKQVTWRLLAAGVCLLTVSSVARADSLDEQRSRYAQIKQAWDNRQMDVVEQMMPGLKDYPLYPYLEYRQITDDLMNQPAVTVTNFVRANPTLPPARTLQSRFVNELARREDWRGLLAFSPEKPGTTEAQCNYYYAKWNTGQSEEAWQGAKELWLTGKSQPNACDKLFSVWRASGKQDPLAYLERIRLAMKAGNTGLVTVLAGQMPADYQTIASAIISLANNPNTVLTFARTTGATDFTRQMAAVAFASVARQDAENARLMIPSLAQAQQLNEDQIQELRDIVAWRLMGNDVTDEQAKWRDDAIMRSQSTSLIERRVRMALGTGDRRGLNTWLARLPMEAKEKDEWRYWQADLLLERGREAEAKEILHQLMQQRGFYPMVAAQRIGEEYELKIDKAPQNVDSALTQGPEMARVRELMYWNLDNTARSEWANLVKSKSKTEQAQLARYAFNNQWWDLSVQATIAGKLWDHLEERFPLAYNDLFKRYTSGKEIPQSYAMAIARQESAWNPKVKSPVGASGLMQIMPGTATHTVKMFSIPGYSSPGQLLDPETNINIGTSYLQYVYQQFGNNRIFSSAAYNAGPGRVRTWLGNSAGRIDAVAFVESIPFSETRGYVKNVLAYDAYYRYFMGDKPTLMSATEWGRRY [P0AGC3] | 5.924 ± 0.022 | 6.7 ± 0.89 | 6.326 ± 0.06 | 6.054 ± 0.043 | 3.16 ± 0.12 | 6.34 ± 0.25 | 12 ± 2.2 | 6.29 ± 0.41 | 12.2 ± 0.23 | 6.07 ± 0.19 | 12.3 ± 0.39 | 6.53 ± 0.35
MITTRTARQCGQADYGWLQARYTFSFGHYFDPKLLGYASLRVLNQEVLAPGAAFQPRTYPKVDILNVILDGEAEYRDSEGNHVQASAGEALLLSTQPGVSYSEHNLSKDKPLTRMQLWLDACPQRENPLIQKLALNMGKQQLIASPEGAMGSLQLRQQVWLHHIVLDKGESANFQLHGPRAYLQSIHGKFHALTHHEEKAALTCGDGAFIRDEANITLVADSPLRALLIDLPV | 5.48 ± 0.071 | 4.42 ± 0.18 | 5.31 ± 0.28 | 4.37 ± 0.26 | – | 4.71 | 9.966 ± 0.01 | 6.13 | 8.48 ± 1.3 | 4.66 ± 0.36 | 9.05 ± 0.27 | 4.33 ± 0.52
MSQPRPLLSPPETEEQLLAQAQQLSGYTLGELAALVGLVTPENLKRDKGWIGVLLEIWLGASAGSKPEQDFAALGVELKTIPVDSLGRPLETTFVCVAPLTGNSGVTWETSHVRHKLKRVLWIPVEGERSIPLAQRRVGSPLLWSPNEEEDRQLREDWEELMDMIVLGQVERITARHGEYLQIRPKAANAKALTEAIGARGERILTLPRGFYLKKNFTSALLARHFLIQ | 5.31 ± 1.2 | 4.23 ± 0.2 | 3.6 ± 0.27 | 3.89 ± 0.26 | 2.83 ± 0.25 | 5.16 ± 0.45 | 8.72 ± 0.48 | 4.92 | – | 5.79 | 8.63 ± 0.7 | 5.21 ± 0.38
MNNIWWQTKGQGNVHLVLLHGWGLNAEVWRCIDEELSSHFTLHLVDLPGFGRSRGFGALSLADMAEAVLQQAPDKAIWLGWSLGGLVASQIALTHPERVQALVTVASSPCFSARDEWPGIKPDVLAGFQQQLSDDFQRTVERFLALQTMGTETARQDARALKKTVLALPMPEVDVLNGGLEILKTVDLRQPLQNVSMPFLRLYGYLDGLVPRKVVPMLDKLWPHSESYIFAKAAHAPFISHPAEFCHLLVALKQRV | 3.79 ± 0.6 | 3.5 ± 0.15 | 3.33 | 4.85 ± 1.8 | 3.39 ± 0.45 | 5.41 ± 0.43 | 12.1 ± 4.7 | 3.63 ± 0.25 | 6.93 ± 1.4 | 5.93 ± 0.25 | – | 3.66 ± 0.1

Reference: the supplement of paper PMC11246515
